The values below are quoted from earlier work in paper PMC7355470.

Read-outs that look alike come from different tables or passages of the source.

In series [1] the target is PSGL-1 (Homo sapiens) (UniProt Q14242).
Another series addresses ESL-1 (Mus musculus) (UniProt Q61543). Nature of the series: SPR. For orientation: SPR reads the build-up and loss of mass on a sensor chip optically.
For series [2], the target named is P-selectin (Homo sapiens) (UniProt P16109).
The target is the same in series [3]. This is another data set of the same source.
Series [4] shares this target. The source holds these as a separate data set.
In series [5] the target is L-selectin (Homo sapiens) (UniProt P14151).
The target of series [6] is E-selectin (Homo sapiens) (UniProt P16581).
Series [7] addresses P-selectin (Homo sapiens) (UniProt P16109). The source holds these as a separate data set.
The target in the next series is GlyCAM-1 (UniProt Q02596).
Chain of UniProt Q02596 (Q02596 20-151): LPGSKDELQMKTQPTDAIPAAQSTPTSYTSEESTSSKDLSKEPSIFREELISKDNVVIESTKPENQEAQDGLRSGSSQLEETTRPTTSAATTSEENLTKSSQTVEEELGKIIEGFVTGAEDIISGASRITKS
The target in series [8] is PSGL-1 (Homo sapiens) (UniProt Q14242). The source holds these as a separate data set.
For series [9], the target named is PSGL-1 glycosulfopeptide N-terminal binding region peptide (Homo sapiens) (UniProt Q14242).
For series [10] the target is unchanged. The source holds these as a separate data set.
Series [11] shares this target. This is another data set of the same source.
The target in series [12] is PSGL-1 glycopeptide (non-sulfated) N-terminal binding region peptide (Homo sapiens) (UniProt Q14242).
For series [13], the target named is P-selectin (Homo sapiens) (UniProt P16109). This is another data set of the same source.

Chain of PSGL-1 (Q14242 42-320): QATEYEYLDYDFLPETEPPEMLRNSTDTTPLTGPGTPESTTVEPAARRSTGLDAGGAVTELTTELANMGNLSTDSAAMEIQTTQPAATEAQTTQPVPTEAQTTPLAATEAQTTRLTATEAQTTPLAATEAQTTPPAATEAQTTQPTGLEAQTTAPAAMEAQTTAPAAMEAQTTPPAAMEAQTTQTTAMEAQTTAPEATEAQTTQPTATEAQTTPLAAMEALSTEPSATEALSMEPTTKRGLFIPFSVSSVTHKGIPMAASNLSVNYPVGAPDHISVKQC
Chain of UniProt Q61543 (Q61543 28-1141): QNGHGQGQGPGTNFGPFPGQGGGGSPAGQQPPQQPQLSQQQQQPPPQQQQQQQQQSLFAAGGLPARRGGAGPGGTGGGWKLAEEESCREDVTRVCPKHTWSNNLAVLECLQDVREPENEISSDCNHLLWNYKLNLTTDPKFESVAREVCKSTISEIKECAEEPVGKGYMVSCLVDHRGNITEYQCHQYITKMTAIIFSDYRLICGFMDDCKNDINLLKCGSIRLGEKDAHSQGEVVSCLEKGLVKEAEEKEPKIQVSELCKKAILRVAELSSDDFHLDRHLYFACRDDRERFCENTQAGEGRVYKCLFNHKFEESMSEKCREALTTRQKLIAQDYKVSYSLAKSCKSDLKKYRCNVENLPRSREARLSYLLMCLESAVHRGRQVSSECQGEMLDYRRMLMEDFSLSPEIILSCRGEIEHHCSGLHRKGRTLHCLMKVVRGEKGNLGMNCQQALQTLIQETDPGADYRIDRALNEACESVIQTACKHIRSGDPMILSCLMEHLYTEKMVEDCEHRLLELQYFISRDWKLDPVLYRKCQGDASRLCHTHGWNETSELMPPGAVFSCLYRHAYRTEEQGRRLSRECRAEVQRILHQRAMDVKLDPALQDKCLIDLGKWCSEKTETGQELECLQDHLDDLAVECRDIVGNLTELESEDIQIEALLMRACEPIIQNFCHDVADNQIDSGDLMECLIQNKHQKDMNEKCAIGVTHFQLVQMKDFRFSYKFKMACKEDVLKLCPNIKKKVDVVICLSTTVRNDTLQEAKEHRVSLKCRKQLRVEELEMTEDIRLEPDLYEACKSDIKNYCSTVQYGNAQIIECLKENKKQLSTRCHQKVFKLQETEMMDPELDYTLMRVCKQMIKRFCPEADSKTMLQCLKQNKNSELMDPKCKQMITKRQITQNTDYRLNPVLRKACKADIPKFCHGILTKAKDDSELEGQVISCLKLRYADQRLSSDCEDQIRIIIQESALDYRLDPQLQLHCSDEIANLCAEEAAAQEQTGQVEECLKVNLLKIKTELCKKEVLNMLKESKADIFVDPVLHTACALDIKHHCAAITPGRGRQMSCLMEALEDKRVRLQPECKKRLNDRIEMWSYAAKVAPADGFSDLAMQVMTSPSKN
Chain of PSGL-1 glycopeptide (non-sulfated) (Q14242 42-320): as the sequence (Q14242 42-320) above

As usually defined, the Kd is the equilibrium constant for the complex coming apart. E-selectin (from UniProt P16581): the Kd is 15 µM with PSGL-1 (Homo sapiens) [1] and 62 µM with ESL-1 (Mus musculus).
With “PSGL-1 glucosulfopeptide (from UniProt Q14242)”, the dissociation constant (Kd) is 0.65 µM in series [2], 6 µM in [3] and 10 µM in [4].
In the case of E-selectin (from UniProt Q00690), in the series with ESL-1 (Mus musculus), the Kd is 62 µM.
As for PSGL-1 (from UniProt Q14242), the values for the Kd in series [5], in series [6] and in series [7] were 5 µM, 15 µM and 0.32 µM, respectively.
Consider L-selectin (from UniProt P18337), for which the Kd with GlyCAM-1 is 108 µM.
For the substance L-selectin (from UniProt P14151), the Kd in the series with PSGL-1 (Homo sapiens) [8] was 5 µM.
Turning to P-selectin (from UniProt P16109), the Kd in [9] was 0.65 µM; in series [10], 10 µM; in series [11], 6 µM; in [12], 25 µM.
Turning to “PSGL-1 glycopeptide (non-sulfated) (from UniProt Q14242)”, in series [13], the Kd is 25 µM.
